Here are results for 41 sequences from the nanobody polyreactivity screen of Harvey et al. (2022).

The nature of this data set: yeast display, Sf9 membrane polyspecificity reagent, FACS + sequencing; frameworks hold sequencing errors. Summed up:
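Nanobodies came from a synthetic yeast display library in Saccharomyces cerevisiae BJ5465, induced with galactose for 36–48 hours and stained for 1 hour at 4 °C with 10% biotinylated, detergent-solubilized Sf9 membrane reagent. Cells were enriched on streptavidin microbeads and then FACS-sorted, with low and high (top ~1%) gates set on anti-HA fluorescence for expression and streptavidin fluorescence for reagent binding. Each polyreactivity label reflects the gate a clone came from. Genes were amplified by colony PCR, sequenced by MiSeq 2 × 250 and filtered by CDR length.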
Turning to “QVQLVESGGGLVQAGGSLRLSCAASGSTLWYNAMGWYRQAPGKERELVATITAGGGSTYYADSVKGRFTISRDNAKNTVYLQMNSLKPEDTAVYYCATRRSRGPWYRNAYDYWGQGTQVTVSS”, the “polyreactivity (PSR sort gate)” value is recorded as “low polyreactivity”.
The entry for “QVQLVESGGGLVQAGGSLRLSCAASGRTIDHYAMGWYRQAPGKERELVAAISTTGGSTYYADSVKGRFTISRDNAKNTVYLQMNSLKPEDTAVYYCAARGLRTGGYWGQGTQVTVSS” is “high polyreactivity”; for “QVQLVESGGGLVQAGGSLLLSCDASGLTFGYYVMGWYRQAPGKERELVASITNGGGSTYYADSVKGRFTISRDYAKNTVYLQMNSLKPEDTAVYYCAAGSYLRKFDYWGQGTQVTVSS” it is “high polyreactivity”; for “QVQLVESGGGLVQAGGSLRLSCASSGLIFSIYAMGWYRQAPGKERELVAAIRWSGGSTYYADSVKGRFTISRDNAKNTVYLQMNSLKPEDTADYYCNADITVYVRIYQYNYWGQGTQVTVSS” it is “low polyreactivity”.
The entry for “QVQLVESGGGLVQAGGSLRLSCAASGRTFRRNAMGWYRQAPGKERELVASITRNGGSTYYADSVKGRFTISRDNAKNTVYLQMNILKPEDTAVYYCYKTQPIDLYGYWGQGTQVTVSS” is “high polyreactivity”; for “QVQLVESGGRIVQAGGSLRLSCAASGRTFLYNVMGWSRQAPGKERELVAAITSGGRTYYADSVKGRFTISRDNAKNTVYLQMNSLKPEDTAVYYCNADRQLYIYRYDYWGQGTQVTVSS” it is “low polyreactivity”; for “QVQLVESGGGLVQAGGSLRLSCAASGSNFRVYAMGWDRQAPGKERELVAAISSSGGITYYADSVKGRFTISRDNAKNTVYLQMNSLKPEDTAVYYCAKGTVIHVLYDYWGQGTQVTVSS” it is “low polyreactivity”.
Take “QVQLVESGGGLVQEGGSLRLSCADSGSISYQNAMGWYRQAPGKERELVAAISGDGDSTYYADSVKGRFTISRDNAKNTVYLQMNSLNPEDTGVYYCAAEPNVYFSVFVLFPSDYWGQGTQVTVSS”: the “polyreactivity (PSR sort gate)” value is recorded as “low polyreactivity”.
The result for “QVQLVESGGGLVQAGGSLRLSCAASGSIFYSYVMGWYRQAPGKERELVAAISRNGQSTYYADSVKGRFTISRDNAKNTVYLQMNSLKPEDTAVYYCAARSRDKYDYWGQGTQVTVSS” reads “high polyreactivity”; that for “QVQLVESGGGLVQAGGSLRLSCAASGSTFPLYAMGWYRQAPGKDRELVAAITWSGANTYYADSVKGRFTISRDNAKNTVSLQMNSLKPEDTAVYYCAAGSYAGFAVIGYYYWGQGTQVTVSS”, “low polyreactivity”; that for “QVQLVESGGGLVQAGGSLRLSCAASGRIFGYYAMGWSRQAPGKERELVASIRRGTRTNYADSVKGRFTISRDNAKNTVYLQMNSLKPEDTAVYYCAATRFQFTTTPWYDYWGQGTHVTVSS”, “high polyreactivity”.
The entry for “QVQLVESGGGLVQAGGSLRLSCAASGRIFVRYAMGWYRQAPGKERELVAAITTTGDSTYADSVKGRFTISRDNAKNTVYLQMNSLKPEDTAVYYCNAAWPESRFLVYHRYDYWGQGTQVTVSS” is “low polyreactivity”.
The result for “QVQLVESGGGLVQAGGSLRLSCAASGSTFVTNDMGWYRQAPAKERELVAAISSGTSTNYADSVKGRFTISRDNAKNTVYLQMNSLKPEDTAVYYCAADSLKRYDYWGHGTQVTVSS” reads “low polyreactivity”; that for “QVQLVESGGGLVQAGGSLRLSCAASGIIFRRNAMGWYRQAPGKERELVAAIRWSGGSTYYADSVKGRFTISRDNAKNTVYLQMNSLKPEDTAVYYCAARYYRPRYEMDYWGQGTQVTVSS”, “low polyreactivity”.
As to “QVQLVESGGGLVQAGGSLRLSCAASGRIFTYNAMGWYRQAPGKEWELVAVISRRGGSTYYADSVKGRFTISRDNAKNSVYLQMNSLKPEDTAVYYCAADLPSYAYEFWGQGTQVTVSS”, the “polyreactivity (PSR sort gate)” value is “low polyreactivity”.
Take “QVQLVESGGGLVQAGGSLRLSCAASGITFPVYTMGWYRPAPVKERELVAAITSSGGSTYYADSVKGRFTISRDNAKNTVYLQMISLKQEDTAVYYCAARDYGRHHSYGYWGQGTQVTVSS”: the “polyreactivity (PSR sort gate)” value is “high polyreactivity”.
The result for “QDQLVESGGGLVQAGGRLRLSCAASGSTFWWYDMGWYRKAHGKDRELVAAINWSGGSTYYADSVKGRFTISRDNAKNTVYLQMNSLKPEDTAVYYCAKVGRETEYDYWGQGTQVTVSS” reads “high polyreactivity”; that for “QVQLVESGGGLVQAGGSLRLSCADSGITFSDYAMGWYRQAPGKERELVAAISARGGSTYYADSVKGRFTISRDNAKNTVYLQMNSLKPEDTAVYYCAADKRTPYYSRAGMDYWGQGTQVTVSS”, “low polyreactivity”.
The result for “QVQLVESGGGLVHAGGSLRLSCAASGFTFFKYAKGWYRQAPGKERELVATISIDGITNYADSVKGRFTISRHNAKNTVYLQMNSLKPEDTAVYYCHARSLYQQLGYWGQGTQVTVSS” reads “low polyreactivity”; that for “QVQLQESGGGLEQAGGSLRMSCAANGNIFDSDIVGRYRQAPGKKRELVASITDGGITNYADSVKGRFTISRDNAKYTVYLQMNSQNPVDTAVYYCAAIAYPDIPTYFDYDSDFFYWGQGTQVTVSS”, “high polyreactivity”.
The result for “QVHLVESGGGLVQAGGSLSLSCAASGLNFRTYAMGWYRQAPGKERELVAAISSSGGSTYYADSVKGRFTISRDNAKNTVYLQMNSLKPEDTAVYYCNVGSRRRRYLDRYEYWGQGTQVTVSS” reads “high polyreactivity”; that for “HVQLVETGGGFVQAGVCLRLSCAASGSIFRVYVMGWYRPATVKERELVAAISHSSGGTYYADSVKWRFTISRDNAKNTVYLQMYSLKPEDTAVYYCAARSRTRRGVHLQPSSRYGSWGQGTQVTVSS”, “high polyreactivity”; that for “QVQLVESGGGLVQAGGSLRLSCAASGSIFLVYAMGWYRQAPGKERELVAVISRGGITNYADSVKGRFTISGDNAKNTVYLQMNSLKPEDTAVYYCAAEPRPSWSRYTYGYWGQGTQVTVSS”, “low polyreactivity”.
For “QVQLVESGGGLVQAGGSHRLSCAASGRTFSGYAMGWYRQAPGKERELVAAISFSGGSTYYADSVKGRFTISRDNAKNTVYLQMNSLKPEDTAVYYCAAEFVRQNYEMDYWGQGTQVTVSS”, the “polyreactivity (PSR sort gate)” value is given as “low polyreactivity”.
The entry for “QVQHVESGGGLVQSGGSHRLSCAASGSTFSDNSLGWYRQAPAKERELVAAISRSGGSTYYADSVNGRFTISRDYAKNTVYLQMNSLIPEDTAVYYCATNRVLTGYDSWGQGTQVTVSS” is “high polyreactivity”.
The entry for “QVQLVESGGGLVQAGGSLRLSCAASGSTVFGNAMGWYRQAPGKERELVAAITSGGSTNYADSVKGRFTISRDNAKNTVYLQMNSLKPEDTAVYYCAKPSRWGWTGFYAYDYWGQGTQVTVSS” is “low polyreactivity”.
The entry for “QVQLVESGGGLVQAGGSLRLSCAASGIIFKYYAMGWYRQAPGKERELVAVISRSGGGTYYADSVKGRFTISRDNAKNTVYLQMNSLKPEDTAVYYCAAERSSGFDYWGQGTQVTVSS” is “high polyreactivity”; for “QVQLVESGGGLVQAGGSLRLSCAASGLTVKWNAMGWYREAPGKETELFASITSGGSTNYADSVKGRFTISRDNAKNTVYLQMNSLKPEDTAFYYCNAEYYLFKRPYSYYYWGQGTQVTVSS” it is “low polyreactivity”; for “QVQLVESGGGLVQAGGSLRLSCAASGRTISVYGMGWYRQAPGKERELVASITWRGGTTYYADSVKGRFTISRDNAKNTVYLQMNSLKPEDTAVYYCAAYWPYTTYRYRYDYWGQGTQVTVSS” it is “high polyreactivity”.
In the case of “QVQLVESGGGLVQAGGSLRLSCAASGFIFYYYAMGWYRQAPGKERELVASISSDGSTYYADSVKGRFTISRDNAKNTVYLQMNSLKPEDTAVYYCNADRYYPDDLSDGVGTYDYWGQGTQVTVSS”, the “polyreactivity (PSR sort gate)” value is given as “low polyreactivity”.
Consider “QVQLVESGGGLVQAGGSLRLSCAASGRTLYQYAMGWYRQAPGKERELVAVITSRGGSTNYADSVKGRFTISRDNAKNTVYLQMNSLKPEDTAVYYCAVLYPKYGKRYGYWGQGSQVTVSS”, for which the “polyreactivity (PSR sort gate)” value is given as “high polyreactivity”.
The result for “QVQLVESGGGLVQAGGILLLSCAASRRIFGVYAMGWYIQAPGKERELVATIRSSGTRKNYADSLKGRFTISRDNAKNTVYLQLNSLKPEDTAVYYCAAGGRPYKLDFTRSDYWGHGTQVTVSS” reads “low polyreactivity”; that for “QVQLVESGGGLVQAGGSLRLSCPASGFIFYDYAMGWYRQAPGKERELVAAISSGGSTNYADSVKGRFTISRDNAKNTVYLQMNSLKPEDTAVYYCAADDRSYATWKRDYDYWGQGTQVTVSS”, “low polyreactivity”; that for “QVQLVESGGGLVQAGGTLRLSCAASGYTFYFYAMGWYRQAPGKEREFVAAIRSSGGRTYYADSVKGRFTISRDNAKNTVYLQMNCLKPEDTAVYSCAAAGYYYSVDGAGPRYDYWGQGTQVTGSS”, “low polyreactivity”.
The entry for “HVQLVESGGGLVQAGGSLRLNCAASGSTFKRNAMGWYRQATGKERELVAAISRSGGSTYYADSVKGRFTISRDNAKTTVYLQMNSLNPEDTAVYFCNALRGTASWRGYYWGQGTQVTVSS” is “high polyreactivity”; for “QVQLVESGGGLVQAGGSLRLSCAASGFTLRVNAMGWYRHPPGKERELVAAISDSGGDTYYADSVKGRFTISRDNAKNTVYLQMNSLKPEDTAVYYCAADDGSENDYWGQGTQVTVSS” it is “low polyreactivity”.
The entry for “QVQLVESGGGLVQAGGRLRLSCAASGSIFIYYAMGWYRQAPGKERELVAAISNGGSTNYADSVKGRFTISRDNAKNTVYLQMNSLKPEDTAVYYCNTDWGYFHGVRAYLGYGYWGQGTQVTVSS” is “low polyreactivity”; for “QVQLVESGGGLVQAGGSLRLSCAASGSTFGRNTMGWYRQAPGKERELVAAITSGDTTTYADSVKGRFTISRDNAKNTVYLQMNSLKPEDTAVYYCAVDPVRGRDYSWMDYWGQGTQVTVSS” it is “low polyreactivity”; for “QVQLVESGGGLDQAGGSLRLSCAASGRIFRYNAMVWYRQAPGKERELVASISGTSRTKYADSVKGRFTISRDNAKNTVYLQMNSLKPEDTAVYYCAARRYGWGRAQSSASYDHWGQGTQVTVSS” it is “high polyreactivity”.
Regarding “QVQLVDSGGGLVQAGGSLRLSCAASGSTFSDSPMGGYRQAPGKERELVAGITGGGGTYYADSVKGRFTISRDNAKNTVYLQMNSLKPEDTAVYYCAAGYGRRIRYGSEYDYWGQGTQVTVSS”, the “polyreactivity (PSR sort gate)” value is “low polyreactivity”.
The result for “QVQLVESGGGLVQAGGSLRLSCAASGLIFPYNAMGWYRQAPGKERELVAAIDSGVTTYYADSVKGRFTISRDNAKNTVYLQMNSLKPEDTAVYFCAADGLPGPEGDSWGQGTQVSVSS” reads “low polyreactivity”.
